This experiment addresses EGFP-EVH2(Mena) (mouse). The experiment in a line: cross-linking; lysates of MV^D7 cells stably expressing EGFP-EVH2 (Mena); 100 mM EDC and 10 mM NHS-ester, 1 h, room temperature; 50 mM MES pH 6.0, 500 mM NaCl; SDS/6% PAGE and anti-GFP western blot. Background: A western blot detects proteins with antibodies after separation by electrophoresis.

By stoichiometry N is commonly meant a count of units in the complex or per binding partner.

EGFP-EVH2(Mena) (domain or fragment) had a stoichiometry N of 4.

These data come from article PMC4721544.
